Legend:
CD47 [1] = molecular target: T1, CD47 (human (endogenous in Jurkat and Reh), UniProt Q08722 19-323); test: FACS; competition with SIRPα-mFc on Reh cells (CD38high/CD47+)
CD47 [2] = molecular target: T1, CD47; test: FACS; competition with SIRPα-mFc on Jurkat cells (CD38low/CD47+)

IC50 (CD47 [1]): 0.216 µg/mL
IC50 (CD47 [2]): 0.0977 µg/mL
B1: IMM01 (SIRPα Fc fusion protein) (Fc fusion)
chain: EEELQVIQPDKSVLVAAGETATLRCTATSLIPVGPIQWFRGAGPGRELIYNQKEGHFPRVTTVSDLTKRNNMDFSIRIGNITPADAGTYYCVKFRKGSPDDVEFKSGAGTELSVRAKP
modifications: SIRPα IgV domain (SD1), limits by convention (complete V domain through its last strand, just before the first C1 domain); dimeric through an Fc that is left out; allelic variant and any engineered substitution not given
